Consider 13 molecules from US20240317858A1 (Adimab, published 2024).

Substitutions are numbered along the chain they refer to.

The term Kd denotes the concentration at which binding is half-saturated.

The chains are these.
B1: Antibody No. A005 (ADI-26921) Fab (Fab, V domains shown)
VH: QVQLVQSGAEVKKPGASVKVSCKASGFNIKDYYMHWVRQAPGQRLEWMGWIDLEEGNTIYDAKFQGRVTITRDTSASTAYMELSSLRSEDTAVYYCARDAYGRYFYDVWGQGTLVTVSS
VL: DIVMTQSPDSLAVSLGERATINCKSSQSLLNARTGKNYLAWYQQKPGQPPKLLIYWASTRESGVPDRFSGSGSGTDFTLTISSLQAEDVAVYYCKQSYSLRTFGGGTKVEIK
notes: Fab by papain digestion of the IgG1
B2: Antibody No. V002 (ADI-67445) Fab (Fab, V domains shown)
VH: B1 VH with E55N, G56A, N57E, G66D, V108E
VL: B1 VL with L100R
notes: as for B1
B3: Antibody No. V014 (ADI-76357) Fab (Fab, V domains shown)
VH: B1 VH with N28D, E55N, G56A, A100Q
VL: B1 VL with L100R
notes: as for B1
B4: Antibody No. V018 (ADI-76361) Fab (Fab, V domains shown)
VH: B1 VH with N28D
VL: B1 VL
notes: as for B1
B5: Antibody No. V010 (ADI-70327) Fab (Fab, V domains shown)
VH: B1 VH with N28D, M48I, D52E, E55N, G56D, N57D, I59V
VL: B1 VL with T5S, E61S, K95V, S99F, L100R
notes: as for B1
B6: Antibody No. V009 (ADI-70326) Fab (Fab, V domains shown)
VH: B1 VH with N28D, M48I, D52E, E55N, G56A, N57D, I59V
VL: B1 VL with T5S, E61S, K95V, S99F, L100R
notes: as for B1
B7: Antibody No. V015 (ADI-76358) Fab (Fab, V domains shown)
VH: B1 VH with E55N, G56A, N57D, A100Q
VL: B1 VL with L100R
notes: as for B1
B8: Antibody No. V016 (ADI-76359) Fab (Fab, V domains shown)
VH: B1 VH with N28D, E55N, G56A, A97G
VL: B1 VL
notes: as for B1
B9: Antibody No. V006 (ADI-67449) Fab (Fab, V domains shown)
VH: B1 VH with I29D, E55N, G56A, N57E, G66D
VL: B1 VL with L100R
notes: as for B1
B10: Antibody No. V012 (ADI-70329) Fab (Fab, V domains shown)
VH: B1 VH with I29D, M48I, E55N, G56A, N57E, I59V, G66D
VL: B1 VL with T5S, E61S, K95V, S99F, L100R
notes: as for B1
B11: Antibody No. V005 (ADI-67448) Fab (Fab, V domains shown)
VH: B1 VH with K30D, E55N, G56D
VL: B1 VL with L100R
notes: Fab by papain digestion of the IgG1; VH as printed is identical to that of V004
B12: Antibody No. V003 (ADI-67446) Fab (Fab, V domains shown)
VH: B1 VH with N28D, D52E, E55N, G56A, N57D
VL: B1 VL with L100R
notes: as for B1
B13: Antibody No. V008 (ADI-70325) Fab (Fab, V domains shown)
VH: B1 VH with M48I, E55N, G56A, N57E, I59V, G66D
VL: B1 VL with T5S, E61S, K95V, S99F, L100R
notes: as for B1

T2 sequence (Q95LI5 22-117, stated change not applied, form in doubt, chain 1 of 2): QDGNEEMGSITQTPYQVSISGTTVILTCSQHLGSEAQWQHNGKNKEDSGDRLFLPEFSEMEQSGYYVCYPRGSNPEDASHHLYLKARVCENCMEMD
T2 sequence (Q95LI8 22-100, stated change not applied, form in doubt, chain 2 of 2): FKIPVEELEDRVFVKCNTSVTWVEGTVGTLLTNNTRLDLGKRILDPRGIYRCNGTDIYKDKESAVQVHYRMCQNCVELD
T1 sequence (P07766 22-126, stated change not applied, form in doubt, chain 1 of 2): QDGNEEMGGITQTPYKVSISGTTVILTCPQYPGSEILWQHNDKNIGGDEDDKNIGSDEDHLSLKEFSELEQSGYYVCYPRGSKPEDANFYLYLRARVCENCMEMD
T1 sequence (P04234 22-100, stated change not applied, form in doubt, chain 2 of 2): as the sequence (Q95LI8 22-100, stated change not applied, form in doubt, chain 2 of 2) above, with V5I, K15N, V20I, T32S, N33D, N34I, A64T, N74S counted along it

One assay concerns the target T1, Human CD3εδ Fc heterodimer (Hu CD3ε Fc + CD3δ Fc-HIS) (human, UniProt P07766 22-126; P04234 22-100).
T1 construct: range 22-126;range 22-100; Made in HEK 293 cells with a heterologous signal peptide; also called Hu CD3εδ-Fc; CD3εδ Fc-HIS heterodimer; not shown: Fc; Fc followed by HIS tag
The assay can be described thus: BLI (Octet), Fab monovalent, pH 7.4. On the procedure: (§1) ForteBio KD measurements (Biolayer interferometry; BLI). ForteBio affinity measurements were performed generally as previously described (Estep, P., et al., High throughput solution-based measurement of antibody-antigen affinity and epitope binning. MAbs, 2013. 5(2): p. 270-8.). Briefly, ForteBio affinity measurements were performed by loading IgGs or CD3εδ Fe-HIS heterodimer onto AHC sensors. Sensors were equilibrated off-line in assay buffer for 30 min and then monitored on-line for 60 seconds for baseline establishment. Sensors with loaded IgGs were exposed to 100 nM antigen (e.g., CD3) for 3 min, afterwards they were transferred to assay buffer for 10 min for off-rate measurement. Sensors loaded with CD3εδ Fe-HIS heterodimer were exposed to 100 nM anti-CD3 Fab for 3 min, afterwards they were transferred to assay buffer for 3 min or 10 min for off-rate measurement. Kinetics were analyzed using the 1:1 binding model. For measuring binding at different pHs, measurements were performed at pre-determined pHs (e.g., pH 7.4 and pH 6.0).
(§2) Anti-CD3 antibodies A001-A005, V002, V004, V007, V009, V010, V013, and V014-V019 were produced as IgG1s in CHO cells, and Fab fragments were generated from IgG1 antibodies by papain digestion and purification as described in Example 2. Human, cynomolgus, rhesus, and mouse CD3εδ Fc heterodimers were produced, and monovalent binding affinity and avidity at pH 7.4 and pH 6.0 were measured using the Octet® HTX instrument (ForteBio) as described in Example 2.
Take B1: the Kd is 78 nM.
Same read-out and setting: the figure for B2 is 13 nM; for B3 it is 44 nM.
Still for that read-out and setting: the figure for B4 is 37 nM.
On the same count and under the same terms, the figure for B5 is 4.1 nM; for B6 it is 1.6 nM; for B7 it is 56 nM.
For B8, the dissociation constant (Kd) worked out at 77 nM.

The next assay addresses T2, Cynomolgus CD3εδ Fc heterodimer (Cy CD3ε Fc + CD3δ Fc-HIS) (cynomolgus, UniProt Q95LI5 22-117; Q95LI8 22-100).
T2 construct: range 22-117;range 22-100; Made in HEK 293 cells with a heterologous signal peptide; also called Cy CD3εδ-Fc; cyno CD3εδ Fc; not shown: Fc; Fc followed by HIS tag
The assay can be described thus: BLI (Octet), Fab monovalent, pH 7.4. The protocol:
as §1, §2
For the molecule B1, the equilibrium dissociation constant (Kd) is 39 nM.
Regarding B2, the Kd was 12 nM.
Same read-out and setting: as for B3, the figure is 39 nM; as for B4, 28 nM.
On the same count and under the same terms, as for B5, the figure is 3.4 nM.
Still for that read-out and setting: as for B6, the figure is 1.9 nM; as for B7, 58 nM; as for B8, 75 nM.

Another assay has as its target T3, Rhesus CD3εδ Fc heterodimer (rhesus).
T3 construct: extracellular domain; also called Rh CD3εδ-Fc
Nature of the assay: BLI (Octet), Fab monovalent, pH 7.4. On the procedure: as §1, §2
In general terms: In BLI a coated tip is dipped into the sample, and binding shifts an interference pattern.
The molecule B1 had a Kd of 36 nM.
Turning to B2, the Kd was 15 nM.
Same read-out and setting: as for B3, the figure is 39 nM.
For B4, the Kd came to 29 nM.
Same read-out and setting: the figure for B5 is 4.4 nM; for B6 it is 1.8 nM.
Still for that read-out and setting: as for B7, the figure is 53 nM; as for B8, 87 nM.

The next assay has as its target T1, Human CD3εδ Fc heterodimer (Hu CD3ε Fc …). The assay can be described thus: BLI (Octet), Fab monovalent, pH 6.0. The protocol:
as §1, §2
Turning to B1, the Kd came to 35 nM.
In the case of B2, the Kd worked out at 8.8 nM.
Same read-out and setting: the figure for B3 is 24 nM.
Still for that read-out and setting: as for B4, the figure is 33 nM.
With B5, the Kd is 2 nM.
On the same count and under the same terms, as for B6, the figure is 1.2 nM; as for B7, 34 nM.
On the same count and under the same terms, as for B8, the figure is 37 nM.

The next assay addresses T2, Cynomolgus CD3εδ Fc heterodimer (Cy …). Nature of the assay: BLI (Octet), Fab monovalent, pH 6.0. On the procedure: as §1, §2
With B1, the Kd worked out at 45 nM.
On the same count and under the same terms, the figure for B2 is 8 nM; for B3 it is 21 nM; for B4 it is 17 nM.
The same measure, in the same setting: the figure for B5 is 1.9 nM; for B6 it is 1.6 nM.
Still for that read-out and setting: as for B7, the figure is 29 nM; as for B8, 49 nM.

The next assay has as its target T1, Human CD3εδ Fc heterodimer (Hu CD3ε Fc …). Nature of the assay: SPR (Biacore), Fab over immobilized CD3εδ Fc, pH 7.4. On the procedure: (§3) Anti-CD3 antibodies A001-A005, V002, V004, V007, V009, V010, V013, and V014-V019 were produced in CHO cells, and Fab fragments were generated from IgG1 antibodies by papain digestion and purification as described in Example 2. Monovalent binding affinity at pH 7.4 and pH 6.0 was measured via surface plasmon resonance (SPR). Briefly, human or cynomolgus CD3εδ Fe heterodimer produced as described in Example 2 was immobilized to a CM5 sensor chip in a Biacore® X100 (Cytiva, previously GE Healthcare Life Sciences) to a response level of ˜500 RUs. Fabs were then injected at 3-fold increasing concentrations, ranging from 0.74-180 nM. The sensor chip was doubly regenerated between cycles using 0.35 M EDTA and 0.1 M NaOH. The resulting data were double reference subtracted and fit to a 1:1 binding model using Biacore® Evaluation Software.
Regarding B1, the Kd is 24 nM.
Take B3: the dissociation constant Kd worked out at 11 nM.
Same read-out and setting: as for B4, the figure is 42 nM; as for B5, 0.39 nM; as for B6, 0.14 nM.
For the molecule B7, the dissociation constant (Kd) is 18 nM.
The same measure, in the same setting: the figure for B8 is 14 nM.

For the next assay, the target named is T2, Cynomolgus CD3εδ Fc heterodimer (Cy …). The description is as above. The protocol: as §3
For B1, the Kd was 33 nM.
Take B3: the Kd amounted to 11 nM.
The same measure, in the same setting: as for B4, the figure is 36 nM; as for B5, 0.45 nM.
Same read-out and setting: as for B6, the figure is 0.15 nM.
Still for that read-out and setting: the figure for B7 is 19 nM.
For B8, the Kd was determined as 16 nM.

The next assay deals with T1, Human CD3εδ Fc heterodimer (Hu CD3ε Fc …). Nature of the assay: BLI (Octet), CD3εδ Fc on AHC sensor, 100 nM Fab. The protocol: (§4) Affinity of the anti-CD3 antibodies for CD3 was determined by measuring their kinetic constants (kₒₙ, koff, KD) on ForteBio Octet®. ForteBio affinity measurements were performed generally as previously described (Estep et al., MAbs. 2013 5(2):270-8). […] Sensors were equilibrated off-line in assay buffer for 30 minutes and then monitored on-line for 60 seconds for baseline establishment. For monovalent binding measurement, sensors with loaded CD3εδ Fc were exposed to 100 nM anti-CD3 Fab, as further described in Example 2 below] for 3 minutes, afterwards they were transferred to assay buffer for 3 minutes for off-rate measurement. Kinetics data were fit using a 1:1 binding model in the data analysis software provided by ForteBio.
Consider B9, for which the Kd amounted to 7.97 nM.
On the same count and under the same terms, the figure for B10 is 1.65 nM.
Still for that read-out and setting: as for B11, the figure is 6.98 nM; as for B2, 7.84 nM.
The same measure, in the same setting: the figure for B12 is 4.57 nM; for B5 it is 1.92 nM; for B6 it is 0.81 nM.
As to B13, the dissociation constant (Kd) was 0.95 nM.

The next assay addresses T2, Cynomolgus CD3εδ Fc heterodimer (Cy …). Nature of the assay: BLI (Octet), CD3εδ Fc on AHC sensor, 100 nM Fab. The protocol:
as §4
With B9, the dissociation constant (Kd) worked out at 8.15 nM.
Same read-out and setting: the figure for B10 is 1.64 nM.
Same read-out and setting: the figure for B11 is 6.06 nM; for B2 it is 7.33 nM; for B12 it is 4.18 nM.
Same read-out and setting: as for B5, the figure is 1.91 nM; as for B6, 0.81 nM.
In the case of B13, the dissociation constant (Kd) was 0.91 nM.

A further assay concerns the target T1, Human CD3εδ Fc heterodimer (Hu CD3ε Fc …). Nature of the assay: SPR (Biacore), Fab over immobilized CD3εδ Fc, pH 6.0. On the procedure:
as §3
B1: the Kd came out at 20 nM.
On the same count and under the same terms, the figure for B2 is 4.2 nM; for B3 it is 12 nM.
On the same count and under the same terms, as for B4, the figure is 31 nM; as for B5, 3.1 nM.
For B6, the Kd came to 1.1 nM.
On to B7, for which the equilibrium dissociation constant (Kd) worked out at 14 nM.
For B8, the Kd was 22 nM.

The next assay has as its target T2, Cynomolgus CD3εδ Fc heterodimer (Cy …). The assay is described as above. The protocol:
as §3
As to B1, the Kd amounted to 24 nM.
On the same count and under the same terms, the figure for B2 is 3.3 nM.
Same read-out and setting: as for B3, the figure is 12 nM; as for B4, 29 nM.
As for B5, the Kd came out at 0.82 nM.
Same read-out and setting: as for B6, the figure is 0.24 nM; as for B7, 11 nM; as for B8, 23 nM.
